Where “and” joins values, the source holds several entries; their conditions need not be identical. Identical values can stand only once.
T1: rhesus monkey IP-10 (rhesus monkey, UniProt Q8MIZ1 22-98)
T1 sequence: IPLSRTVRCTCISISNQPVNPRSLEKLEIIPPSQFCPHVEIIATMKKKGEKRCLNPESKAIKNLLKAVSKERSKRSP

T2: human ITAC (interferon-inducible T cell alpha chemoattractant) (human, UniProt O14625 22-94)
T2 sequence: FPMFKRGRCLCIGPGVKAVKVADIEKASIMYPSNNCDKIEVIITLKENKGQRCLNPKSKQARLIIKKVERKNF

T3: human MIG (monokine induced by gamma interferon) (human, UniProt Q07325 23-125)
T3 construct: Bought (PeproTech 300-26; R&D Systems for the migration assay)
T3 sequence: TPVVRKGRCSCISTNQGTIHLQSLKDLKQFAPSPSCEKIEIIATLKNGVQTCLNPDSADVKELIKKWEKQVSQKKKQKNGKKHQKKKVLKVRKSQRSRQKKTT

T4: mouse IP-10 (mouse, UniProt P17515 22-98)
T4 construct: Bought (PeproTech 250-16)
T4 sequence: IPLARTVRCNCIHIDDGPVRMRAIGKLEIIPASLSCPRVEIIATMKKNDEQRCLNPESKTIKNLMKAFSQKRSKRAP


How the values were obtained:
[1] = target: T5, human IP-10 (interferon gamma inducible protein 10) (human, UniProt P02778 22-98); assay: SPR (Biacore), human IP-10 on CM5 chip, 37 C
T5 construct: Native IP-10 from THP-1 supernatant and from MS patient CSF in the migration assays is also put under this molecule; also called CXCL10; rhIP-10
Procedure: (§1) Binding was measured by flowing the antibody in HBS EP buffer (provided by Biacore AB) at concentrations from 33-267 nM at a flow rate of 40 μl/min. The antigen-antibody association kinetics was followed for 5 minutes and the dissociation kinetics was followed for 8 minutes. The association and dissociation curves were fit to a 1:1 Langmuir binding model using BIAevaluation software (Biacore AB). Data corresponding to the initial few dozen seconds for association and dissociation phases alone were considered for curve fitting to minimize the effect of avidity. The experiments were performed at both 25° C. and 37° C.

[2] = target: T5, human IP-10 (interferon gamma inducible …); assay: SPR (Biacore), human IP-10 on CM5 chip, 25 C
Procedure: as §1

rhesus monkey IP-10 [3] = target: T1, rhesus monkey IP-10; assay: cell-based or functional assay
[4] = target: T5, human IP-10 (interferon gamma inducible …); assay: cell-based or functional assay
[5] = target: T2, human ITAC (interferon-inducible T cell …); assay: SPR (Biacore), antigen on CM5 chip, antibody 133 nM, 25 C
Procedure: (§2) The flow was then stopped and dissociation was monitored for 5 minutes. The association and dissociation curves were fit to a Langmuir binding model using BIAevaluation software (Biacore AB).

rhesus monkey IP-10 [6] = target: T1, rhesus monkey IP-10; assay: as above
Procedure: as §2

[7] = target: T3, human MIG (monokine induced by gamma …); assay: as above
Procedure: as §2

[8] = target: T5, human IP-10 (interferon gamma inducible …); assay: SPR (Biacore), extension of dissociation curve, 37 C
Procedure: as §1
(§3) The values were determined by extension of the dissociation curves to get to the time required for the 50% reduction of the Y-axis of the dissociation sensogram.

[9] = target: T5, human IP-10 (interferon gamma inducible …); assay: cell-based or functional assay; remark: listed apart in the source
[10] = target: T5, human IP-10 (interferon gamma inducible …); assay: inhibition of 0.100 nM 125I-IP-10 binding to CXCR3-expressing 300.19 cells
Procedure: The cells were grown in RPMI media containing 10% FCS and G418 selection. Prior to use, the cells were washed twice with Hank's Balanced Salt Solution (HBSS) at 4° C. and adjusted to 4×10⁷ cells/ml. Glass fiber plates (Millipore MultiScreen®, Cat. #MAFBNOB50) were blocked with 200 μl of a 0.1% polyethyleneimine solution one day prior to the experiment. On the day of the study, the blocking buffer was aspirated by using a Millipore manifold. The plates were washed three times with 200 μl of binding buffer (50 mM HEPES, pH 7.2, 1 mM CaCl₂, 5 mM MgCl₂, 0.5% BSA). […] The plates were incubated on a plate shaker for 60 minutes at room temperature and washed three times with wash buffer (10 mM HEPES, pH 7.2, 0.5 M NaCl, 0.5% BSA) at a volume of 200 μl per wash. The plates were dried, 25 μl of scintillant was added and the plates were counted on a Wallac Microbeta Counter. Data were analyzed using Prism software and a KD was calculated.
Competition assays were run in a similar manner to the experiment described above. […] Lastly, 25 μl of cells at a density of 1×10⁶ cells per well were added and the plates were incubated on a plate shaker for 60 minutes at room temperature, washed and counted as described above. EC₅₀ values were calculated using Prism software. Kᵢ values (in nM) were determined using the formula: […]

rhesus monkey IP-10 [11] = target: T1, rhesus monkey IP-10; assay: ELISA, plate coated with 1 ug/ml antigen
Procedure: (§4) The plates were washed with PBS/Tween and then incubated with a goat-anti-human IgG Fc polyclonal antibody conjugated with horseradish peroxidase (HRP) for 1 hour at room temperature. After washing, the plates were developed with ABTS substrate (Sigma, A-1888, 0.22 mg/ml) and analyzed by spectrophotometer at OD 415-495.

[12] = target: T3, human MIG (monokine induced by gamma …); assay: ELISA, plate coated with 1 ug/ml antigen
Procedure: as §4

[13] = target: T5, human IP-10 (interferon gamma inducible …); assay: ELISA, plate coated with 1 ug/ml antigen
Procedure: as §4

[14] = target: T5, human IP-10 (interferon gamma inducible …); assay: SPR (Biacore), extension of dissociation curve, 25 C
Procedure: as §1, §3

[15] = target: T3, human MIG (monokine induced by gamma …); assay: SPR (Biacore), antigen on CM5 chip, 25 C; sample 6A5 Batch 2
Procedure: as §2

[16] = target: T5, human IP-10 (interferon gamma inducible …); assay: cell-based or functional assay; remark: listed apart in the source
[17] = target: T2, human ITAC (interferon-inducible T cell …); assay: SPR (Biacore), antigen on CM5 chip, 25 C; sample 6A5
Procedure: as §2

mouse IP-10 [18] = target: T4, mouse IP-10; assay: as above
Procedure: as §2

[19] = target: T2, human ITAC (interferon-inducible T cell …); assay: SPR (Biacore), antigen on CM5 chip, 25 C
Procedure: as §2

mouse IP-10 [20] = target: T4, mouse IP-10; assay: SPR (Biacore), antigen on CM5 chip, 25 C
Procedure: as §2

T5 sequence (P02778 other isoform, or with tags, fused parts or gaps limits assumed): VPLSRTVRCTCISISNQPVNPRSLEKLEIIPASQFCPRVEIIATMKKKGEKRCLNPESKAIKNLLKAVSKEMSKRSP

Row | Kd [1] | koff [1] | kon [1] | Kd [2] | koff [2] | kon [2] | Kd (rhesus monkey IP-10 [6]) | Kd [7] [pM] | Half-life (dissociation of half of the antibody-antigen complex) [8] | IC50 (nM) for 300.19 Cells: inhibition of IP-10-induced calcium flux in 300.19 cells transfected to express CXCR3 [9] [nM] | IC50 (nM) for HPBL: inhibition of IP-10-induced calcium flux in anti-CD3 activated human PBLs that express CXCR3 [9] [nM] | Ki [10] | EC50 (rhesus monkey IP-10 [11]) | EC50 [12] [µg/mL] | EC50 [13] | Half-life (dissociation of half of the antibody-antigen complex) [14] | Binder | further results
1 | 2540 pM | 0.000504 s⁻¹ | 199000 M⁻¹ s⁻¹ | 1780 pM | 0.000172 s⁻¹ | 95000 M⁻¹ s⁻¹ | 2010 pM | 15400 | 0.38 h | 0.5 | 4.4 | 300 pM | 0.045 µg/mL | 0.02 | 0.03 µg/mL | 1.12 h | 6B10 human monoclonal antibody (antibody, V domains shown, Human IgG with kappa light chain from a hybridoma of transgenic mice) VH: QVQLVESGGGVVQPGRSLRLSCAASGFTFSNSAMHWVRQAPGKGLEWVALIPFDGYNKYYADSVKGRFTISRDNSKNTLYLQMNSLRAEDTAVYYCAREGGYTGYDGGFDYWGQGILVTVSS VL: EIVLTQSPATLSLSPGERATLSCRASQSVSSYLAWYQQKPGQAPRLLIYDASNRATGIPARFSGSGSGTDFTLTISSLEPEDFAVYYCQQRSNWPPYTFGQGTKLEIK | rrmIP-10 IC50: inhibition of migration of CXCR3-expressing 300.19 cells induced by 100 ng/ml recombinant rhesus macaque IP-10 (rhesus monkey IP-10 [3]): 0.149 µg/mL; THP-1 IP-10 IC50: inhibition of migration of CXCR3-expressing 300.19 cells induced by native IP-10 in THP-1 supernatant, MIG blocked by anti-MIG [4]: 0.193 µg/mL; rhIP-10 IC50: inhibition of migration of CXCR3-expressing 300.19 cells induced by 100 ng/ml recombinant human IP-10 [4]: 1.1 µg/mL; Kd [5]: 51500 pM
2 | 700 pM and 740 pM | 7.15e-05 s⁻¹ and 6.26e-05 s⁻¹ | 102000 M⁻¹ s⁻¹ and 84100 M⁻¹ s⁻¹ | 1200 pM and 960 pM | 3.64e-05 s⁻¹ and 3.1e-05 s⁻¹ | 31100 M⁻¹ s⁻¹ and 32000 M⁻¹ s⁻¹ | 1060 pM and 1230 pM | – | 2.69 h and 3.87 h | – | – | 670 pM and 350 pM | 0.125 µg/mL and 0.09 µg/mL | – | 0.035 µg/mL and 0.062 µg/mL | 5.29 h and 6.21 h | 6A5 human monoclonal antibody (antibody, V domains shown, Human IgG with kappa light chain from a hybridoma; also called 6A5 Batch 2; 6A5 (Batch 2)) VH: QMQLVESGGGVVQPGRSLRLSCTASGFTFSNNGMHWVRQAPGKGLEWVAVIWFDGMNKFYVDSVKGRFTISRDNSKNTLYLEMNSLRAEDTAIYYCAREGDGSGIYYYYGMDVWGQGTTVTVSS VL: not shown | rrmIP-10 IC50: inhibition of migration of CXCR3-expressing 300.19 cells induced by 100 ng/ml recombinant rhesus macaque IP-10 (sample 6A5 (Batch 2)) (rhesus monkey IP-10 [3]): 0.119 µg/mL; THP-1 IP-10 IC50: inhibition of migration of CXCR3-expressing 300.19 cells induced by native IP-10 in THP-1 supernatant, MIG blocked by anti-MIG (sample 6A5 (Batch 2)) [4]: 0.132 µg/mL; rhIP-10 IC50: inhibition of migration of CXCR3-expressing 300.19 cells induced by 100 ng/ml recombinant human IP-10 (sample 6A5 (Batch 2)) [4]: 0.156 µg/mL; binding result [15]: no binding (tested: 133 nM); Expt. 1 IC50: inhibition of MS-CSF induced migration of CXCR3-expressing 300.19 cells, MIG neutralized by anti-MIG (sample 6A5 (Batch 2)) [16]: 0.1 µg/mL; Expt. 2 IC50: inhibition of MS-CSF induced migration of CXCR3-expressing 300.19 cells, MIG neutralized by anti-MIG (sample 6A5 (Batch 2)) [16]: 0.236 µg/mL; IC50 (nM) for 300.19 Cells: inhibition of IP-10-induced calcium flux in 300.19 cells transfected to express CXCR3 (sample 6A5) [9]: 0.61 nM; IC50 (nM) for 300.19 Cells: inhibition of IP-10-induced calcium flux in 300.19 cells transfected to express CXCR3 (sample 6A5 Batch 2) [9]: 0.42 nM; IC50 (nM) for HPBL: inhibition of IP-10-induced calcium flux in anti-CD3 activated human PBLs that express CXCR3 (sample 6A5) [9]: 2.85 nM; IC50 (nM) for HPBL: inhibition of IP-10-induced calcium flux in anti-CD3 activated human PBLs that express CXCR3 (sample 6A5 Batch 2) [9]: 2.18 nM; binding result [17]: no binding (tested: 133 nM); binding result (mouse IP-10 [18]): no binding (tested: 133 nM)
3 | 340 pM | 4.97e-05 s⁻¹ | 148000 M⁻¹ s⁻¹ | ~198 pM | 7.5e-06 s⁻¹ | 37800 M⁻¹ s⁻¹ | 260 pM | 70100 | 3.87 h | 0.5 | 2.98 | 90 pM | 0.03 µg/mL | 0.045 | 0.03 µg/mL | 25.7 h | 2G1 human monoclonal antibody (antibody, V domains shown, Human IgG with kappa light chain from a hybridoma of transgenic mice) VH: QVQLVESGGGVVQPGRSLRLSCAASGFTFSNCGMHWVRQAPGKGLEWVALIGYDGINEYYADSVKGRFTISRDNSKNTLYLQMNSLRAEDTAVFYCARDWPEGYYNGMDVWGQGTTVTVSS VL: not shown | binding result [19]: no binding (tested: 133 nM); binding result (mouse IP-10 [20]): no binding (tested: 133 nM)
